The values that follow come from patent US20200190197A1 (REMD BIOTHERAPEUTICS, published 2020).

B1: murine-human chimeric antibody derived from murine PDL1#10 (Chimeric IgG) (antibody, V domains shown)
VH: EVQLQQSGAELVRPGSSVKMSCKTSGYTFTSYSINWVKQRPGQGLEWIAYFYVGNGYTDYNEKFKGKATLTSDTSSSTAYMQLSSLTSEDSAIYFCARGGLPYYFDYWGQGTTLTVSS
VL: DIVMTQSHKFMSTSVGDRVSITCKTSQDVNTAVAWYQQKPGHSPKLLFYWASTRHTGVPDRFTGGGSGTDYTLTISSVQAEDLALYYCQQHYNTPLTFGAGTRLELKR
notes: also called mouse-human chimeric antibody
B2: AS01814 (humanized full-length IgG) (antibody, V domains shown)
VH: QVQLVQSGSELKKPGASVKVSCKASGYTFTSYSINWVRQAPGKGLEWVAYFYVGNGYTDYNEKFKGRVTITADESTSTAYMELSSLRSEDTAVYYCARGGLPYYFDYWGQGTLVTVSS
VL: DIQMTQSPSTLSASVGDRVTITCKTSQDVNTAVAWYQQKPGKAPKLLLYWASTRHTGIPARFSGSGSGTEFTLTISSLQSEDFAVYYCQQHYNTPLTFGGGTKLEIKR
notes: Full-length IgG expressed in HEK293 cells, protein A purified
B3: AS01790 (humanized full-length IgG) (antibody, V domains shown)
VH: EVQLVQSGAEVKKPGESLKISCKGSGYSFTSYSINWVRQMPGKGLEWMGYFYVGNGYTDYNEKFKGRVTMTRNTSISTAYMELSSLRSEDTAVYYCARGGLPYYFDYWGQGTLVTVSS
VL: B2 VL with L48I, I58V, A60S, S80P, V85T
notes: as for B2
B4: AS02013 (humanized full-length IgG) (antibody, V domains shown)
VH: B3 VH with M40A
VL: B2 VL with M4L, T10S, K42Q, K45R, L48I, I58V, A60S, E70D, S80P, V85T
notes: as for B2
B5: murine-human chimeric Fab (from mAb PDL1#10) (Fab, V domains shown)
VH: B1 VH
VL: B1 VL
B6: AS01824 (humanized Fab) (Fab, V domains shown)
VH: B2 VH
VL: EIVMTQSPATLSVSPGERATLSCKTSQDVNTAVAWYLQKPGQSPQLLIYWASTRHTGVPSRFSGSGSGTDYTLTISSLQPEDFATYYCQQHYNTPLTFGGGTKLEIK
notes: Purified humanized Fab
B7: AS02013 (humanized Fab) (Fab, V domains shown)
VH: B3 VH with M40A
VL: DIQLTQSPSSLSASVGDRVTITCKTSQDVNTAVAWYQQKPGQAPRLLIYWASTRHTGVPSRFSGSGSGTDFTLTISSLQPEDFATYYCQQHYNTPLTFGGGTKLEIK
notes: Purified humanized Fab
B8: AS01825 (humanized Fab) (Fab, V domains shown)
VH: B2 VH with V2M, S9A, L11V, P14T, A16S, A40M, V48M, A49G
VL: B7 VL with S10F, Q42K, R45K, F83V
notes: Purified humanized Fab
B9: AS01814 (humanized Fab) (Fab, V domains shown)
VH: B2 VH
VL: B7 VL with L4M, S10T, Q42K, R45K, I48L, V58I, S60A, D70E, P80S, T85V
notes: Purified humanized Fab
B10: AS01789 (humanized Fab) (Fab, V domains shown)
VH: EVQLVQSGAEVKKPGESLKISCKGSGYSFTSYSINWVRQAPGQALEWMGYFYVGNGYTDYNEKFKGRVTITRDTSASTAYMELSSLRSEDTAVYYCARGDLPFYFDYWGDGILVTVAS
VL: DIVMTQSPDSLAVSLGERATINCKTSQDVNTAVAWYQQKPGQPPKLLIYWASTRHTGVPDRFSGSGSGTDFTLKISRVEAEDVGVYYCQQHYNTPLTFGGGTKLEIK
notes: Purified humanized Fab
B11: AS01807 (humanized Fab) (Fab, V domains shown)
VH: B2 VH with V48M, A49G, A72R, E74T, T76A
VL: B7 VL with L4M, L11V, G41D, A43S, R45K, Y49K
notes: Purified humanized Fab
B12: AS02002 (humanized Fab) (Fab, V domains shown)
VH: B2 VH with V2M, S9A, L11V, P14T, A16S, P41R, K43Q, G44R, V48I, A49G
VL: B7 VL with L4M, G41D, A43S, R45K, Y49K, V58I, S60A, D70E, P80S, T85V
notes: Purified humanized Fab
B13: AS01978 (humanized Fab) (Fab, V domains shown)
VH: B3 VH with M40A, M70I, R72T, N73D, T74E, I76T
VL: B7 VL with G41D, A43S, R45K, Y49K
notes: Purified humanized Fab
B14: AS01790 (humanized Fab) (Fab, V domains shown)
VH: B3 VH
VL: B7 VL with L4M, S10T, Q42K, R45K, D70E
notes: Purified humanized Fab derived from PDL1#10 (pFASEBA vector, E. coli)
B15: AS01979 (humanized Fab) (Fab, V domains shown)
VH: B3 VH with M40A
VL: B7 VL with L4M, L11V, A43P, R45K, S60D, P80A, F83V, T85V
notes: Purified humanized Fab
B16: AS01995 (humanized Fab) (Fab, V domains shown)
VH: B3 VH with M40A
VL: B7 VL with L4M, L11V, Q42K, R45K, I48L, F83V
notes: Purified humanized Fab
B17: AS01817 (humanized Fab) (Fab, V domains shown)
VH: B3 VH with M40A, M70I, N73D, I76A
VL: B7 VL with S10F, A43P, R45K
notes: Purified humanized Fab

Changes are numbered by the printed parent chain.

The first test deals with T1, His-tagged PD-L1 protein (human, UniProt Q9NZQ7 19-238).
T1 construct: also called His-tagged antigen PD-L1 protein; human PD-L1; not shown: His tag
T1 sequence (Q9NZQ7 19-238 limits assumed): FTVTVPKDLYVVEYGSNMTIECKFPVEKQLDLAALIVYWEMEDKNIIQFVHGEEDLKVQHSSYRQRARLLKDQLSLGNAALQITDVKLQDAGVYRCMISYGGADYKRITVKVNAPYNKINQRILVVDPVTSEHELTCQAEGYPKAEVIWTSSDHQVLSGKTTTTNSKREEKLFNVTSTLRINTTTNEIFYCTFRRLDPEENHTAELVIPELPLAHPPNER
Briefly: SPR, Biacore T200, full-length IgG, 1:1 interaction model. From the text:
Binding data for each antibody was processed and fitted to 1:1 interaction model using Biacore T200 evaluation software. All experimental data could be well fitted to the model.
Turning to B1, the Kd was 1 nM, the koff stood at 0.000338 s⁻¹ and the kon turned out to be 336000 M⁻¹ s⁻¹.
In the same order, the values of B2 are 0.461 nM, 0.000173 s⁻¹ and 376000 M⁻¹ s⁻¹.
For B3 the same measures were 0.769 nM, 0.000253 s⁻¹ and 329000 M⁻¹ s⁻¹.
B4 displayed a Kd of 0.751 nM, a dissociation rate constant (koff) of 0.000276 s⁻¹ and a kon of 367000 M⁻¹ s⁻¹.

For the next test, the target named is T1, His-tagged PD-L1 protein. Briefly: SPR, Biacore T200, multi-cycle; Fab captured on chip, His-tagged PD-L1 as analyte. How it is done: A combinatorial humanization phage display library was constructed using the heavy chain and light chain variable domain sequences of mAb PDL1#10. Briefly, frameworks of human antibodies with high sequence identities to PDL1#10 were selected and assembled using overlapping PCR. This humanized Fab phage display library was panned against PD-L1 Fc-fusion protein. Individual output phage clones were amplified in 96-deep-well plates and the amplified phage were assayed by ELISA against PD-L1 Fc-fusion protein. […] DNAs encoding the Fab fragments of the output phage were amplified and inserted in pFASEBA vector (Genscript) for the screening of the best humanized antibody clones. Individual Fab clones were expressed in 96-deep-well plates and the crude protein secreted by E. coli to the medium was assayed by ELISA against BSA and the antigen PD-L1 protein for the assessment of expression and binding activity, respectively. Thousands of humanized clones were screened and a number of clones with slower off-rate were identified, amongst which 14 clones with the highest binding affinities were subjected to multi-cycle affinity measurement. The binding affinity of the 14 purified Fabs to His-tagged PD-L1 protein were determined using a Surface Plasmon Resonance (SPR) biosensor, Biacore T200 (GE Healthcare) for multi-cycle affinity measurements. Fabs were immobilized on the sensor chip through capture method. His-tagged antigen PD-L1 protein was used as the analyte. The data of dissociation (kd) and association (ka) rate constants were processed using Biacore T200 evaluation software. The equilibrium dissociation constants (KD) were calculated from the ratio of kd over ka.
In turn, B5 registered an equilibrium dissociation constant (Kd) of 0.29 nM, a koff of 0.00021 s⁻¹ and an on-rate (kon) of 730000 M⁻¹ s⁻¹.
As for B6, the Kd was 0.87 nM, the dissociation rate constant (koff) was determined as 0.00054 s⁻¹ and the kon was found to be 620000 M⁻¹ s⁻¹.
For B7 the same measures were 0.38 nM, 0.0002 s⁻¹ and 500000 M⁻¹ s⁻¹.
In the same order, the values of B8 are 1.1 nM, 0.00039 s⁻¹ and 360000 M⁻¹ s⁻¹.
The molecule B9 yielded a Kd of 0.16 nM, a dissociation rate constant (koff) of 0.00011 s⁻¹ and a kon of 680000 M⁻¹ s⁻¹.
In the case of B10, the Kd worked out at 1.1 nM, the off-rate (koff) is 0.00036 s⁻¹ and the kon amounted to 330000 M⁻¹ s⁻¹.
For B11 the same measures were 1.4 nM, 0.00035 s⁻¹ and 260000 M⁻¹ s⁻¹.
B12: the Kd worked out at 1.5 nM, the koff amounted to 0.00042 s⁻¹ and the on-rate constant (kon) amounted to 310000 M⁻¹ s⁻¹.
Take B13: binding was characterised by a dissociation constant (Kd) of 1.6 nM, the off-rate constant (koff) was determined as 0.00045 s⁻¹ and the on-rate (kon) came out at 290000 M⁻¹ s⁻¹.
For B14 the same measures were 0.35 nM, 0.00017 s⁻¹ and 500000 M⁻¹ s⁻¹.
As for B15, the Kd turned out to be 0.4 nM, the koff was 0.00019 s⁻¹ and the kon came out at 470000 M⁻¹ s⁻¹.
B16 had a Kd of 0.37 nM, an off-rate (koff) of 0.00017 s⁻¹ and an on-rate constant (kon) of 450000 M⁻¹ s⁻¹.
Turning to B17, binding was put at a Kd of 0.93 nM, the off-rate constant (koff) turned out to be 0.00032 s⁻¹ and the kon amounted to 340000 M⁻¹ s⁻¹.
